Measured values reported in paper PMC3499415, “The Human Cytomegalovirus DNA Polymerase Processivity Factor UL44 Is Modified by SUMO in a DNA-Dependent Manner” (PLoS ONE, 2012).

B2: HCMV UL44 (DNA polymerase processivity factor), full-length, yeast two-hybrid fusion (natural protein)
chain: MDRKTRLSEPPTLALRLKPYKTAIQQLRSVIRALKENTTVTFLPTPSLILQTVRSHCVSKITFNSSCLYITDKSFQPKTINNSTPLLGNFMYLTSSKDLTKFYVQDISDLSAKISMCAPDFNMEFSSACVHGQDIVRESENSAVHVDLDFGVVADLLKWIGPHTRVKRNVKKAPCPTGTVQILVHAGPPAIKFILTNGSELEFTANNRVSFHGVKNMRINVQLKNFYQTLLNCAVTKLPCTLRIVTEHDTLLYVASRNGLFAVENFLTEEPFQRGDPFDKNYVGNSGKSRGGGGGGGSLSSLANAGGLHDDGPGLDNDLMNEPMGLGGLGGGGGGGGKKHDRGGGGGSGTRKMSSGGGGGDHDHGLSSKEKYEQHKITSYLTSKGGSGGGGGGGGGGLDRNSGNYFNDAKEESDSEDSVTFEFVPNTKKQKCG
notes: also called LexA-UL44; GAD-UL44; source: yeast two-hybrid fusion (S. cerevisiae L40)

Legend:
Test in all cases: two-hybrid
[1] = biological target: T1, HCMV UL44 (DNA polymerase processivity factor), full-length, yeast two-hybrid fusion (human cytomegalovirus (HCMV)), P16790; conditions: remark: other sources report otherwise
T1 chain: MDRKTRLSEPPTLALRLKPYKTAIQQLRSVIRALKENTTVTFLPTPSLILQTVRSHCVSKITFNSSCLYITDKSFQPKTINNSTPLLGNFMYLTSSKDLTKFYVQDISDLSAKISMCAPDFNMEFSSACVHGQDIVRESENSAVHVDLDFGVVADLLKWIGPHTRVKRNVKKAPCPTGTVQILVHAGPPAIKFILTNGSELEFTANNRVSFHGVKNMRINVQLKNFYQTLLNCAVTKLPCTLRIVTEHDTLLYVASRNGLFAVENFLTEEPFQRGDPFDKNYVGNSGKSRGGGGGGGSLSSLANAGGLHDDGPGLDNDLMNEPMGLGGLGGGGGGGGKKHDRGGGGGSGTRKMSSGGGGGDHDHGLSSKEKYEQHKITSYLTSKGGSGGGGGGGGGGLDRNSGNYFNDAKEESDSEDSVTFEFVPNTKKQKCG

[2] = biological target: T2, human Ubc9 (SUMO-conjugating enzyme E2), yeast two-hybrid fusion (human, UniProt P63279 1-158); conditions: partners not purified
T2 construct: also called GAD-Ubc9; LexA-Ubc9

[3] = biological target: B2; conditions: partners not purified

T2 sequence (P63279 whole entry, the tested form may be a part): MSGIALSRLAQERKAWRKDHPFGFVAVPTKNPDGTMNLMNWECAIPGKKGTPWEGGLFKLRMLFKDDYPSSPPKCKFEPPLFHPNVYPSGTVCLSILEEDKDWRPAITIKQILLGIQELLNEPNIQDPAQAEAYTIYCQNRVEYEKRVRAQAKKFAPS

B1: HCMV UL44 (DNA polymerase processivity factor), full-length, yeast two-hybrid fusion, P16790 1-433 (natural protein)
chain: MDRKTRLSEPPTLALRLKPYKTAIQQLRSVIRALKENTTVTFLPTPSLILQTVRSHCVSKITFNSSCLYITDKSFQPKTINNSTPLLGNFMYLTSSKDLTKFYVQDISDLSAKISMCAPDFNMEFSSACVHGQDIVRESENSAVHVDLDFGVVADLLKWIGPHTRVKRNVKKAPCPTGTVQILVHAGPPAIKFILTNGSELEFTANNRVSFHGVKNMRINVQLKNFYQTLLNCAVTKLPCTLRIVTEHDTLLYVASRNGLFAVENFLTEEPFQRGDPFDKNYVGNSGKSRGGGGGGGSLSSLANAGGLHDDGPGLDNDLMNEPMGLGGLGGGGGGGGKKHDRGGGGGSGTRKMSSGGGGGDHDHGLSSKEKYEQHKITSYLTSKGGSGGGGGGGGGGLDRNSGNYFNDAKEESDSEDSVTFEFVPNTKKQKCG
Which β-gal expression [1] does the source give for B1 here?
The β-gal expression was 7640 Units.

How did the β-gal expression [2] turn out when B2 was run?
The β-gal expression was 6920 Units.

B3: HCMV UL54 (DNA polymerase catalytic subunit), GAD fusion (enzyme)
chain: MFFNPYLSGGVTGGAVAGGRRQRSQPGSAQGSGKRPPQKQFLQIVPRGVMFDGQTGLIKHKTGRLPLMFYREIKHLLSHDMVWPCPWRETLVGRVVGPIRFHTYDQTDAVLFFDSPENVSPRYRQHLVPSGNVLRFFGATEHGYSICVNVFGQRSYFYCEYSDTDRLREVIASVGELVPEPRTPYAVSVTPATKTSIYGYGTRPVPDLQCVSISNWTMARKIGEYLLEQGFPVYEVRVDPLTRLVIDRRITTFGWCSVNRYDWRQQGRASTCDIEVDCDVSDLVAVPDDSSWPRYRCLSFDIECMSGEGGFPCAEKSDDIVIQISCVCYETGGNTAVDQGIPNGNDGRGCTSEGVIFGHSGLHLFTIGTCGQVGPDVDVYEFPSEYELLLGFMLFFQRYAPAFVTGYNINSFDLKYILTRLEYLYKVDSQRFCKLPTAQGGRFFLHSPAVGFKRQYAAAFPSASHNNPASTAATKVYIAGSVVIDMYPVCMAKTNSPNYKLNTMAELYLRQRKDDLSYKDIPRCFVANAEGRAQVGRYCLQDAVLVRDLFNTINFHYEAGAIARLAKIPLRRVIFDGQQIRIYTSLLDECACRDFILPNHYSKGTTVPETNSVAVSPNAAIISTAAVPGDAGSVAAMFQMSPPLQSAPSSQDGVSPGSGSNSSSSVGVFSVGSGSSGGVGVSNDNHGAGGTAAVSYQGATVFEPEVGYYNDPVAVFDFASLYPSIIMAHNLCYSTLLVPGGEYPVDPADVYSVTLENGVTHRFVRASVRVSVLSELLNKWVSQRRAVRECMRECQDPVRRMLLDKEQMALKVTCNAFYGFTGVVNGMMPCLPIAASITRIGRDMLERTARFIKDNFSEPCFLHNFFNQEDYVVGTREGDSEESSALPEGLETSSGGSNERRVEARVIYGDTDSVFVRFRGLTPQALVARGPSLAHYVTACLFVEPVKLEFEKVFVSLMMICKKRYIGKVEGASGLSMKGVDLVRKTACEFVKGVTRDVLSLLFEDREVSEAAVRLSRLSLDEVKKYGVPRGFWRILRRLVQARDDLYLHRVRVEDLVLSSVLSKDISLYRQSNLPHIAVIKRLAARSEELPSVGDRVFYVLTAPGVRTAPQGSSDNGDSVTAGVVSRSDAIDGTDDDADGGGVEESNRRGGEPAKKRARKPPSAVCNYEVAEDPSYVREHGVPIHADKYFEQVLKAVTNVLSPVFPGGETARKDKFLHMVLPRRLHLEPAFLPYSVKAHECC
notes: also called GAD-UL54; source: yeast two-hybrid fusion (S. cerevisiae L40)
For B3, which β-gal expression [3] is on record?
The β-gal expression was 8240 Units.
